Here are results for one molecule from publication PMC3840697 (Angewandte Chemie (International Ed. in English), 2013).

In this test the target is T1, exosome core with Rrp42 N9A (state A mutant) (UniProt Q9UXC2 1-248; Q9UXC0 1-275, N9A).
T1 sequence 1: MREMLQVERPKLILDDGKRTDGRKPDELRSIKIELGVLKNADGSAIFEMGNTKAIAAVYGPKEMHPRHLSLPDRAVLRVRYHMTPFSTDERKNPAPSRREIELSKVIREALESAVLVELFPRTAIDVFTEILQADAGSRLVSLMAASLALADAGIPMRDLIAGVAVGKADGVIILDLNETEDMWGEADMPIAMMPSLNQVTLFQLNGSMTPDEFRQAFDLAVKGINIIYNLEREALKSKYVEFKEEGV
T1 sequence 2: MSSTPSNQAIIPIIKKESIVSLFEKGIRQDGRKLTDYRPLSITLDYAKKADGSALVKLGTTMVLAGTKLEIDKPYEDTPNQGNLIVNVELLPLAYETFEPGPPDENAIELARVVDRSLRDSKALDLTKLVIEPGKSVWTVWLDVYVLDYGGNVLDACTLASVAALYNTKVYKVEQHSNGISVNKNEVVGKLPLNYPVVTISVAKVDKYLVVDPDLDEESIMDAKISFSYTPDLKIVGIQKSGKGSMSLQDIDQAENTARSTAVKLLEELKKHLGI
Briefly: methyl TROSY NMR spectra of free and cap-bound exosome core.

B1: Rrp4 (exosome cap protein) (natural protein)
chain: MNMSQSQKIVLQPRSIVVPGELLAEGEFQIPWSPYILKINSKYYSTVVGLFDVKDTQFEVIPLEGSFYYPKINDIVIGLVEDVEIYGWVVDIKAPYKAYLPASNLLGRSINVGEDLRRYLDVGDYVIARIENFDRSIDPVLSVKGKDLGRVSNGIVIDIMPVKVPRVIGKNKSMYETLTSKSGCSIFVANNGRIWATCPSRFSEEILIEAIRKIENESHIKGLTDRIKQFIEEKLGERNASSGETKTNS
In the case of B1, the binding result is on record as “binds”.
